Common to all, as to assay: native gel or EMSA; purified p66 on NativePage Novex Bis-Tris gel, then Western blotting with mouse monoclonal anti-RT antibody; in the presence or absence of β-mercaptoethanol
Background: In EMSA bound probe runs differently from free probe, usually more slowly.

Experiment [1] addresses HIV-1 reverse transcriptase p66 subunit, mutant Y271A (HIV-1 (pNL4-3-ΔE-EGFP)).
Experiment [2] deals with HIV-1 reverse transcriptase p66 subunit, wild type (HIV-1 (pNL4-3-ΔE-EGFP)).
In experiment [3] the target is HIV-1 reverse transcriptase p66 subunit, mutant I274A (HIV-1 (pNL4-3-ΔE-EGFP)).

The term stoichiometry N denotes a count of units in the complex or per binding partner.

Values joined by “and” are separate entries in the source; they are usually repeats but may differ in a detail not shown here. Equal values may be shown once.

In the case of “HIV-1 reverse transcriptase p66 subunit, mutant Y271A (enzyme)”, in experiment [1], the stoichiometry N was 2 and 4.

The substance “HIV-1 reverse transcriptase p66 subunit, wild type (enzyme)” had a stoichiometry N in experiment [2] of 2.

On to “HIV-1 reverse transcriptase p66 subunit, mutant I274A (enzyme)”, for which the stoichiometry N in experiment [3] was 4 and 8.

The record behind these values is PMC2701634.
